Experimental data from WO2000075333A1 (dated 2000).

Target: T1, CD20 (human, UniProt P11836 1-297)
T1 construct: whole, on cells; also called CD20 antigen; CD20-positive Ramos cell line
T1 sequence (looked up): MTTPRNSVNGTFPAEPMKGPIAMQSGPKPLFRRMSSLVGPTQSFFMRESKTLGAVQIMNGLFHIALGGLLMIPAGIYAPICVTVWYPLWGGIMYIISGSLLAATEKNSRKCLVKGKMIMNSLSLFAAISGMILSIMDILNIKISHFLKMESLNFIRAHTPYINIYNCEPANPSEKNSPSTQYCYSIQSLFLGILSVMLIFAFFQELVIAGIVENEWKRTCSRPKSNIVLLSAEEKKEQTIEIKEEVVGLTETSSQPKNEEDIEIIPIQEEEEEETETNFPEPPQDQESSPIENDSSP
Test: saturation binding of radiolabeled mAb to Ramos cells (10^7 cells), nonlinear regression, concentrations adjusted for immunoreactivity

B1: B9E9 mAb (antibody, V domains shown)
VH: QVQLVQSGAELVKPGASVKMSCKASGYTFTSYNMHWVKQTPGQGLEWIGAIYPGNGDTSYNQKFKGKATLTADKSSSTAYMQLSSLTSEDSAVYYCARAQLRPNYWYFDVWGAGTTVTVSS
VL: DIVLSQSPAILSASPGEKVTMTCRASSSVSYMHWYQQKPGSSPKPWIYATSNLASGVPARFSGSGSGTSYSLTISRVEAEDAATYYCQQWISNPPTFGAGTKLELK
In the case of B1, the Kd is reported as 9.75 nM.
